This passage reports binding result and Kd results from patent publication US20200138864A1 (CRAGE MEDICAL, published 2020).

Test [1] addresses T1, reference peptide RMFS2 complexed with HLA on T2 cells (T2/RMFS2).
T1 construct: whole, on cells
The test is described as follows: flow cytometry on T2/RMFS2 cells. A general note: In flow cytometry, cells or beads pass a laser one at a time.

Test [2] has as its target T2, reference peptide RMFS1 complexed with HLA on T2 cells (T2/RMFS1).
T2 construct: whole, on cells
The test is described as follows: flow cytometry on T2/RMFS1 cells.

Test [3] has as its target T3, RMF/HLA.A0201 complex (WT1 peptide RMF complexed with recombinant HLA.A0201-BSP and human β2m) (human, labeled with a biotinylation kit (BirA) on the BSP).
T3 construct: also called RMF/HLA complex; WT1 peptide (RMF) complexed with HLA; not shown: biotin protein ligase BirA substrate peptide (BSP)
The test is described as follows: SPR (Biacore T200), 1:1 Langmuir fit. (In general: SPR reads the build-up and loss of mass on a sensor chip optically.)

The target of test [4] is T3, RMF/HLA.A0201 complex (WT1 peptide RMF …). The test is described as follows: ELISA with 2.5, 0.5 and 0.2 ug/ml RMF/HLA complex, scFv clone. (In general: ELISA stands for enzyme-linked immunosorbent assay.)

For orientation: Kd means the equilibrium constant for the complex coming apart.

Where a chain is given by its changes, count along the chain named.

B1: antigen binding unit 2 (ABU2) (scFv)
scFv: GVQLVESGAEVKKPGASVKVSCKASGYTFTELSMHWVRQAPGKGLEWMGLVDPEDGETIYAEKFQGRVTITADTSTDTAYMELSSLRSEDTAVYYCATDLAAGTNDYWGKGTLVTVSSGGGGSGGGGSGGGGSQAVVTQEPSVTVSPGGTVTLTCGSDTGAVTSGHYPYWFQQKPGQAPRTLIYDTSNKHSWTPARFSGSLLGGKAALTLSGAQPDDEADYYCLLSYSGEWVFGGGTKVTVL
notes: also called parent ABU2; parental ABU2
B1: the binding result in test [1] and in test [2] was “no binding” in each case.

B2: ABU2 (ScFv_Fc) (Fc fusion, not shown: a dimerising Fc or GST)
scFv: B1 scFv
notes: The format is printed only on the sheet; also called parent ABU2 as scFv-Fc
B2: the Kd in test [3] was found to be 1.47 nM.

B3: ABU5 (scFv)
scFv: B1 scFv with D52V, E54D
Turning to B3, the binding result in test [4] is “binds”.

B4: ABU4 (scFv)
scFv: B1 scFv with D52V, E54A
With B4, in test [4], the binding result was “binds”.

B5: ABU3 (ScFv_Fc) (Fc fusion, not shown: a dimerising Fc or GST)
scFv: B1 scFv with T159S, A161P, S164R, Y184D, N188R
notes: The format is printed only on the sheet
Regarding B5, in test [3], the Kd was 0.0467 nM.
